Experimental data from patent US20070009989A1, “Synthetic heparanase molecules and uses thereof” (priority 2003, published 2007).
Numbering of substitutions follows the chain as printed.

Assays:
[1] = biological target: T1, hepGS3 single chain construct produced in insect cells (Homo sapiens, UniProt Q9Y251, DEL111-157/INS109GSGSG/K307R); experiment: Heparin titration in the fluorimetric heparanase activity assay, hepGS3; assay type: biochemical
T1 construct: made in house; host or cells: Sf9 insect cells (baculovirus, Bac to Bac)
T1 sequence (Q9Y251 with tags, fused parts or gaps INS109GSGSG/DEL111-157/K307R): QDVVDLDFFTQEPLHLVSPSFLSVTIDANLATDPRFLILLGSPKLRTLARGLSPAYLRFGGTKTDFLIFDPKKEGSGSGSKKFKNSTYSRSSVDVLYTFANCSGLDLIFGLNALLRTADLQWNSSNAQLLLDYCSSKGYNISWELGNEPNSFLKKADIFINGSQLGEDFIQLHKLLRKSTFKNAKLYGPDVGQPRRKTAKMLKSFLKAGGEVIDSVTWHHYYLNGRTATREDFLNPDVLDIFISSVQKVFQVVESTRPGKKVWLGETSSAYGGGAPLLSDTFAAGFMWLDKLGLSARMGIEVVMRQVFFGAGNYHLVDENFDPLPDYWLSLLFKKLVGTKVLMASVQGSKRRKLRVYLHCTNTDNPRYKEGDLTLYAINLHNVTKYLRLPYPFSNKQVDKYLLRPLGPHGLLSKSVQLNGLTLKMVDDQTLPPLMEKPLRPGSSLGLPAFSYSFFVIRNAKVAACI
Protocol: (§1) FIG. 7: Ionic strength dependence (panel A), inhibition by heparin (panel B) and pH-dependence (panel C) of wild-type heparanase produced in COS7 cells (●), hepGS3 (□) and hepHyal (▴) single chain constructs produced in insect cells using the fluorimetric activity assay.
(§2) This assay is based on the degradation of FITC-HS monitored by HPLC size exclusion chromatography. 8 μl of purified heparanase was incubated with 5 μL of FITC-HS in a 50 μl of 50 mM MES pH 6, 10% glycerol (heparanase activity buffer, HAB). The reaction mixture was incubated at room temperature for a defined period and the reaction was stopped by the addition of 50 μg of heparin. The mixture was then filtered using Ultrafree-MC centrifugal filter Devices (Millipore). 20 μl were injected on a Superdex 75™ (Pharmacia Biotech) column equilibrated in buffer 50 mM Hepes pH 7.5 150 mM Na2SO4 and connected to a Merck-Hitachi HPLC system. Fluorescent heparan sulfate degradation products were detected by an L-7485 fluorescence detector. Heparanase activity was assessed by monitoring the increase in lower molecular weight heparan sulfate species compared with the intact FITC-HS and quantified by peak area integration.

[2] = biological target: T2, wild-type heparanase produced in COS7 cells (hepwt) (Homo sapiens, UniProt Q9Y251); experiment: Heparin titration in the fluorimetric heparanase activity assay, wild-type enzyme; assay type: biochemical
T2 construct: made in house; host or cells: COS7 cells, transient transfection with pcDNA3; partially purified on Heparin Sepharose
T2 sequence (Q9Y251 36-109 limits assumed): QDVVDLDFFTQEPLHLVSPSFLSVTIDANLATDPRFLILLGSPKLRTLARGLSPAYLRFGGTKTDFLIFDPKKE
T2 sequence (Q9Y251 158-543 limits assumed): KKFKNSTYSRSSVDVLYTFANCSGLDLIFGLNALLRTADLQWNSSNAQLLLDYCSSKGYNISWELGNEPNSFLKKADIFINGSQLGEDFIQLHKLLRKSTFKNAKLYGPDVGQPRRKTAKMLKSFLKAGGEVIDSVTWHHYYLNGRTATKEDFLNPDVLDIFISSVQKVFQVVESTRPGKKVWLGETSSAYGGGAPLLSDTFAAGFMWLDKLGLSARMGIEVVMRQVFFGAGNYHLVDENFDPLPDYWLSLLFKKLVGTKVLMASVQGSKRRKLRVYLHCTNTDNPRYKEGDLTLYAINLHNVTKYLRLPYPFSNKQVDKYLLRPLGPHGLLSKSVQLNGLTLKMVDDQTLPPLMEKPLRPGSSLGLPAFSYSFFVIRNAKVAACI
Protocol: as §1, §2

[3] = biological target: T3, hepHyal single chain construct produced in insect cells (Homo sapiens, UniProt Q9Y251, DEL119-135/E137F/E138K/K139D/K307R/L140K/L142P/R141T/V136A); experiment: Heparin titration in the fluorimetric heparanase activity assay, hepHyal; assay type: biochemical
T3 construct: made in house; host or cells: Sf9 insect cells (baculovirus, Bac to Bac)
T3 sequence (Q9Y251 other isoform, or with tags, fused parts or gaps DEL119-135/V136A/E137F/E138K/K139D/L140K/R141T/L142P/K307R): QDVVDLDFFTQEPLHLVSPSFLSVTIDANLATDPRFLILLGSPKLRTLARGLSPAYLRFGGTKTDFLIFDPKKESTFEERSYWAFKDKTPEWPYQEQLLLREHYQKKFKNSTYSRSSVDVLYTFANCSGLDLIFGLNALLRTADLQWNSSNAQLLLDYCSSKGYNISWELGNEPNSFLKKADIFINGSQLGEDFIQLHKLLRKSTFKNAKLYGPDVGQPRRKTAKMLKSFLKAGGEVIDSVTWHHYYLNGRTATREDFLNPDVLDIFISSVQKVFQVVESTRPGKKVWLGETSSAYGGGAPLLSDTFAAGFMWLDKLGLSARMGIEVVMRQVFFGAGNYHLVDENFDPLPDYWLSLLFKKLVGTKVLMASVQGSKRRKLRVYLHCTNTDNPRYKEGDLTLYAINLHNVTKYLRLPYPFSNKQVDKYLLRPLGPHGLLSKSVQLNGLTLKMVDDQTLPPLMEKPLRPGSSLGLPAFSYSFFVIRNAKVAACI
Protocol: as §1, §2

[4] = Heparanase activation of TEV cleavage site constructs by digestion with TEV protease; assay type: biochemical; conditions: overnight at room temperature, TEV protease 0.5 μM, 50 mM Mes pH 6.0
Protocol: Heparanase activity of these samples was assessed using the fluorimetric method.
The constructs having TEV cleavage sites at positions 109/110 and 109/110+157/158 were expressed, purified on a heparin affinity column and digested overnight at room temperature with TEV protease (0.5 μM) in 50 mM Mes pH 6.0, 10% glycerol, 0.5 mM EDTA.
as §2

[5] = biological target: T4, hepTEV110 (human heparanase with a TEV cleavage site E109-GSGSENLYFQ-GSG-G110 inserted between E109 and G110)
T4 chain: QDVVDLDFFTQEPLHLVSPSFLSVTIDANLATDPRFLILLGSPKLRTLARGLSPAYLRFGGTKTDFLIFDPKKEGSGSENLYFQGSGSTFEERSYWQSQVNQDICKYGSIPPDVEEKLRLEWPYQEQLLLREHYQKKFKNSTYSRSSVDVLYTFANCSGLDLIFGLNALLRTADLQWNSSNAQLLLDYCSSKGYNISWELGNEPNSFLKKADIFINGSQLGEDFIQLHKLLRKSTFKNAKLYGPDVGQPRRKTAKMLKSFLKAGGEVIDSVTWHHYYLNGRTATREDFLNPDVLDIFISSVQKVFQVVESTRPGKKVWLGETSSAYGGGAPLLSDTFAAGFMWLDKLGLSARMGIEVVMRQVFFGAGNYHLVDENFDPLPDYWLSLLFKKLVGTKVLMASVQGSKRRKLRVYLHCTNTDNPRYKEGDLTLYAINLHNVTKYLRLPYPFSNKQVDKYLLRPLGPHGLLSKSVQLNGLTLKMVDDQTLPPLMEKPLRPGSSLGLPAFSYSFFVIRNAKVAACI

[6] = biological target: T5, hepTEV110/158 (human heparanase with TEV cleavage sites between E109/G110 and Q157/K158)
T5 chain: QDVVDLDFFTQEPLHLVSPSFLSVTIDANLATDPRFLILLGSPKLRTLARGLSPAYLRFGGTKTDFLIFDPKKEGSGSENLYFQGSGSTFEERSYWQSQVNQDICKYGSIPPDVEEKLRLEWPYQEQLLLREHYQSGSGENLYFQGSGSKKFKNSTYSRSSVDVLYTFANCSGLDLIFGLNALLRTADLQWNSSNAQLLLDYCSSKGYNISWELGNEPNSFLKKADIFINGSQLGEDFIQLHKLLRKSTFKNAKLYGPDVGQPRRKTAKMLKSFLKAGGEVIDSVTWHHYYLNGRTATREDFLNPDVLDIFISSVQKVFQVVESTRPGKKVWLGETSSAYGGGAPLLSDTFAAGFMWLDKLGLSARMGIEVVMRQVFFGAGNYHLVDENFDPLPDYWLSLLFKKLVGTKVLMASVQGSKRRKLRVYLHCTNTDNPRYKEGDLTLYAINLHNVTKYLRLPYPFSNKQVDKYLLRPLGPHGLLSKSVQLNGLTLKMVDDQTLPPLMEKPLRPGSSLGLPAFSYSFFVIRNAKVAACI

[7] = cited from earlier work

Molecule: heparin
- IC50 of heparin, hepGS3 [1]: 1.1 µg/mL
- IC50 of heparin, hepwt [2]: 0.9 µg/mL
- IC50 of heparin, hepHyal [3]: 1.5 µg/mL

B1: 109/110: heparanase with TEV protease cleavage site between E109 and G110, protein SEQ ID NO:31 (protein)
chain: MLLRSKPALPPPLMLLLLGPLGPLSPGALPRPAQAQDVVDLDFFTQEPLHLVSPSFLSVTIDANLATDPRFLILLGSPKLRTLARGLSPAYLRFGGTKTDFLIFDPKKEGSGSENLYFQGSGSTFEERSYWQSQVNQDICKYGSIPPDVEEKLRLEWPYQEQLLLREHYQKKFKNSTYSRSSVDVLYTFANCSGLDLIFGLNALLRTADLQWNSSNAQLLLDYCSSKGYNISWELGNEPNSFLKKADIFINGSQLGEDFIQLHKLLRKSTFKNAKLYGPDVGQPRRKTAKMLKSFLKAGGEVIDSVTWHHYYLNGRTATREDFLNPDVLDIFISSVQKVFQVVESTRPGKKVWLGETSSAYGGGAPLLSDTFAAGFMWLDKLGLSARMGIEVVMRQVFFGAGNYHLVDENFDPLPDYWLSLLFKKLVGTKVLMASVQGSKRRKLRVYLHCTNTDNPRYKEGDLTLYAINLHNVTKYLRLPYPFSNKQVDKYLLRPLGPHGLLSKSVQLNGLTLKMVDDQTLPPLMEKPLRPGSSLGLPAFSYSFFVIRNAKVAACI
modifications: hep TEV110
- activation of heparanase by TEV protease treatment [4]: not sufficient for eliciting activation

B2: tobacco etch virus (TEV) protease (protein)
chain: GESLFKGPRDYNPISSTICHLTNESDGHTTSLYGIGFGPFIITNKHLFRRNNGTLLVQSLHGVFKVKNTTTLQQHLIDGRDMIIIRMPKDFPPFPQKLKFREPQREERICLVTTNFQTKSMSSMVSDTSCTFPSSDGIFWKHWIQTKDGQCGSPLVSTRDGFIVGIHSASNFTNTNNYFTSVPKNFMELLTNQEAQQWVSGWRLNADSVLWGGHKVFMSKPEEPFQPVKEATQLMNELVYSQ
- proteolytic processing by TEV protease (overnight digestion, Western blot) [5]: Complete processing was observed in both cases
- proteolytic processing by TEV protease (overnight digestion, Western blot) [6]: Complete processing was observed in both cases

B3: 109/110+157/158: heparanase with TEV cleavage sites between E109/G110 and Q157/K158, SEQ ID NOs:29 and 32 (protein)
chain: T5 chain
- activation of heparanase by TEV protease treatment [4]: activated

B4: 50 kDa protein: mature 50 kDa human heparanase fragment, SEQ ID NO:16 (protein)
chain: T2 sequence (Q9Y251 158-543 limits assumed) with K150R
modifications: Human
- activity if expressed as such in mammalian cells ([7]; Hulett et al. 1999): inactive
- specific activity relative to the unprocessed 65 kDa precursor ([7]; Vlodavsky et al. 1999): at least 100 fold
